In IntAct's records for PubMed 17428920:

B1: Insulin-induced gene 2 protein (Homo sapiens), Q9Y5U4 (parent)
chain: MAEGETESPGPKKCGPYISSVTSQSVNLMIRGVVLFFIGVFLALVLNLLQIQRNVTLFPPDVIASIFSSAWWVPPCCGTASAVIGLLYPCIDRHLGEPHKFKREWSSVMRCVAVFVGINHASAKVDFDNNIQLSLTLAALSIGLWWTFDRSRSGFGLGVGIAFLATVVTQLLVYNGVYQYTSPDFLYVRSWLPCIFFAGGITMGNIGRQLAMYECKVIAEKSHQE
partner: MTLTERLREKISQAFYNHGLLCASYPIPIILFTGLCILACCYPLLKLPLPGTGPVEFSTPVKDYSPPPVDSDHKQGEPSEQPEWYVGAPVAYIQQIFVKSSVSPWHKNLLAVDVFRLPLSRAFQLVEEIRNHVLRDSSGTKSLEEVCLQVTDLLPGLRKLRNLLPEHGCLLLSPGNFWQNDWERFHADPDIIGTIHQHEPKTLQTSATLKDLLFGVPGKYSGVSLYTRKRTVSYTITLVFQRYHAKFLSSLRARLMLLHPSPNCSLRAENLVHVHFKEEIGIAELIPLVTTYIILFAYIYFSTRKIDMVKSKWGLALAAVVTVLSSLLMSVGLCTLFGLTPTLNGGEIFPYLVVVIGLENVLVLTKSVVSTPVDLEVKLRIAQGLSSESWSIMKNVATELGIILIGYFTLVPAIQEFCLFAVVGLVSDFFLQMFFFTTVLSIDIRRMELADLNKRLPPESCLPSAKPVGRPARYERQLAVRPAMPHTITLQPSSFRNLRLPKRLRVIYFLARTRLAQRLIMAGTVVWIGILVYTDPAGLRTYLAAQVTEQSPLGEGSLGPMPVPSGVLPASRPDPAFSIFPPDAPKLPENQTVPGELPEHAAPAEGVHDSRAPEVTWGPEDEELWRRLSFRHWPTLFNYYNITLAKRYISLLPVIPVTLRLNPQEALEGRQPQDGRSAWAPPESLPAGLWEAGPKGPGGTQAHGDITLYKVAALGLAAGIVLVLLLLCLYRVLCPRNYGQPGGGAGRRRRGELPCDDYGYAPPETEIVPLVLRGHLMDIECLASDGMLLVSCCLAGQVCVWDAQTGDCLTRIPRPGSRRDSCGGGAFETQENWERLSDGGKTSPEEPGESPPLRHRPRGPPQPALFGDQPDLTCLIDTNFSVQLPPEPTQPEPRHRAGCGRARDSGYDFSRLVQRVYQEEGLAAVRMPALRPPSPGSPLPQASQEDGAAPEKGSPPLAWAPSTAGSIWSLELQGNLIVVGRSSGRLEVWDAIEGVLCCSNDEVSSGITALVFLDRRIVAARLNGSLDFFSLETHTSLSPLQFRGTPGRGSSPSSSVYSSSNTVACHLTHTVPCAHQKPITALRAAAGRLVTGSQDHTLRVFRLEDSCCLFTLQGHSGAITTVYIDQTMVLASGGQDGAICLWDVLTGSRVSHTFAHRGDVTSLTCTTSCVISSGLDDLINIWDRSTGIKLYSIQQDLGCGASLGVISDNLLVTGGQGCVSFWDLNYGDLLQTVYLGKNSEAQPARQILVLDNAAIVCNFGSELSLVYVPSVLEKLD

Variants of: B1
Details: with scap_crigr SCAP

Variant	effect of a mutation on the interaction
T136A	decreasing interaction strength
F115A	disrupting interaction strength
